Article PMC3522304

Biological target: hematopoietic form of CD44 (CD44-H) fused to CFP or YFP (human) (UniProt P16070)
Experiment: FRET or BRET

FRET efficiency (E) with nHA followed by oHA: -15.3%
Substance: hematopoietic form of CD44 (CD44-H) fused to CFP or YFP (from UniProt P16070-12 21-361) (receptor)
